Data on 1 molecule can be found in article PMC3578176 (Cancer research, 2012).

This test has as its target His(6)-p300 (UniProt Q09472 1-2414). Kind of test: pull-down.

Sequence of His(6)-p300 (Q09472 whole entry): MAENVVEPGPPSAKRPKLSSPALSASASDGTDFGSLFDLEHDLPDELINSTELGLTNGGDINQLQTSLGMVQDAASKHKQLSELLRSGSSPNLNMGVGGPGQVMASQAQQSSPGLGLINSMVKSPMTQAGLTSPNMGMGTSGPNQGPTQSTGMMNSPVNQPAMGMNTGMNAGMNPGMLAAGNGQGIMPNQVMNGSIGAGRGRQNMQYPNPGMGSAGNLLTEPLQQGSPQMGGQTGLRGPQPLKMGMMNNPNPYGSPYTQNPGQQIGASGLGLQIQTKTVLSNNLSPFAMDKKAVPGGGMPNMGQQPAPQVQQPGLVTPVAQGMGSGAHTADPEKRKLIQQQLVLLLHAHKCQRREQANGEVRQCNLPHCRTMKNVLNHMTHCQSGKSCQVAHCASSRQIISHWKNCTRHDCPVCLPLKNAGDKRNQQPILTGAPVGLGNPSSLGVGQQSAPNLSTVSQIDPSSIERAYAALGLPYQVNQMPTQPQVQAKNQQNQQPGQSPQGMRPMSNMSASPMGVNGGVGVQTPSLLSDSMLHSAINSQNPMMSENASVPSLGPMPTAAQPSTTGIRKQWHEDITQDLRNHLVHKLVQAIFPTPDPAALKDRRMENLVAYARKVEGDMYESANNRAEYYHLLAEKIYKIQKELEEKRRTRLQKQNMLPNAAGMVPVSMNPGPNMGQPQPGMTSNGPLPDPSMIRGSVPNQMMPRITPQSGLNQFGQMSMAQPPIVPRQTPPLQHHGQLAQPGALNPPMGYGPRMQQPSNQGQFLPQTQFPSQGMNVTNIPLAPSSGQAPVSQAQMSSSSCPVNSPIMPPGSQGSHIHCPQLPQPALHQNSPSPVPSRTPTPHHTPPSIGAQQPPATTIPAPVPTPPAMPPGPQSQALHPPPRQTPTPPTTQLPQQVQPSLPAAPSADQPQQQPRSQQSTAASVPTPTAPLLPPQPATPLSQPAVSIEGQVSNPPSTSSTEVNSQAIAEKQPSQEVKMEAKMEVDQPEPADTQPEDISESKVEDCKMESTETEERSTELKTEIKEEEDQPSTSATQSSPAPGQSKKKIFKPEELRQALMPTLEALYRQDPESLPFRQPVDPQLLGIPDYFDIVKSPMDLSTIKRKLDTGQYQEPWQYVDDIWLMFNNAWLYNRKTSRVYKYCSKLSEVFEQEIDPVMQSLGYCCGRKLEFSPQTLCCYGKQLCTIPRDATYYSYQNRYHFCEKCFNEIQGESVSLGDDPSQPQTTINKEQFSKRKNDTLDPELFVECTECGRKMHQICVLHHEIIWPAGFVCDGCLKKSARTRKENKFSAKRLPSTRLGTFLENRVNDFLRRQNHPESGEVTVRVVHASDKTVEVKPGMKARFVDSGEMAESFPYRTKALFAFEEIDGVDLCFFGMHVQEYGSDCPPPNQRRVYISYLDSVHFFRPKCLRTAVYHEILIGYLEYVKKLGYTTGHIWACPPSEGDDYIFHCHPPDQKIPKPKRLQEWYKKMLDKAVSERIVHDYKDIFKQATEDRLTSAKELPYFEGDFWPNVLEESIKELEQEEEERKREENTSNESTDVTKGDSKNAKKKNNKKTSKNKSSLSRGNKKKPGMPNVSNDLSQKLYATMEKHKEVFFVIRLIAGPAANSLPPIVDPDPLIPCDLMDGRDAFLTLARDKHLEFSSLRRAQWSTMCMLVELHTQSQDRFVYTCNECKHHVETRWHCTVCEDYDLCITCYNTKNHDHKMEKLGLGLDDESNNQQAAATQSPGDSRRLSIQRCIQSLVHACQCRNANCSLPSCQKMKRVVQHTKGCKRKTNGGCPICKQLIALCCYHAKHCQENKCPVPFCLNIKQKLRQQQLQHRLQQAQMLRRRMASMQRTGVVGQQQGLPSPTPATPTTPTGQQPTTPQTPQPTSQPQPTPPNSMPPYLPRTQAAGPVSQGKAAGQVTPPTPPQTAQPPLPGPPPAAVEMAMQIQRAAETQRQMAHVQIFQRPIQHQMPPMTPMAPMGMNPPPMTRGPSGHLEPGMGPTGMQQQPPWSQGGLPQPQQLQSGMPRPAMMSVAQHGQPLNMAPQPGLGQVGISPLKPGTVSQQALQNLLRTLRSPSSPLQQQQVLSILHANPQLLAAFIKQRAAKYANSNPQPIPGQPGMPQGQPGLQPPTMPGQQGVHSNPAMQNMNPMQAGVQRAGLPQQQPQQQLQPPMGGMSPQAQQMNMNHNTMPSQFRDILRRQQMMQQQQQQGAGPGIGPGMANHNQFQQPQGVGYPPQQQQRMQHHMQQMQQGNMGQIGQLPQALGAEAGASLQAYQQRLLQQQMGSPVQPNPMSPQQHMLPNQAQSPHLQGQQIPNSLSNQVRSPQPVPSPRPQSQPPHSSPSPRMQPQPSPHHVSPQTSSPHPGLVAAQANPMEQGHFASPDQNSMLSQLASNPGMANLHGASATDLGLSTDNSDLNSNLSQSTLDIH

B1: GST-fused BRMS1 WT (natural protein, UniProt Q9HCU9 1-246, looked up)
chain: MPVQPPSKDTEEMEAEGDSAAEMNGEEEESEEERSGSQTESEEESSEMDDEDYERRRSECVSEMLDLEKQFSELKEKLFRERLSQLRLRLEEVGAERAPEYTEPLGGLQRSLKIRIQVAGIYKGFCLDVIRNKYECELQGAKQHLESEKLLLYDTLQGELQERIQRLEEDRQSLDLSSEWWDDKLHARGSSRSWDSLPPSKRKKAPLVSGPYIVYMLQEIDILEDWTAIKKARAAVSPQKRKSDGP
As to B1, the binding result is on record as “binds”.
